This is an account of results in patent publication CN114002427A (dated 2022).

This experiment concerns the target T1, 新型冠状病毒核衣壳蛋白 (SARS-COV-2, UniProt P0DTC9 1-419).
T1 construct: also called SARS-COV-2 nucleocapsid protein; 新型冠状病毒核衣壳蛋白抗原
Description: ELISA screening of hybridomas for antigen-specific antibodies. In general terms: An ELISA detects its analyte on a solid surface through an enzyme-linked reagent.

B1: mAb#9 (antibody, V domains shown)
VH: EVQLVESGGGLVKPGGSLKLSCAASGITFSDYYMYWVRQTPEKRLEWVATISDGGSYTYYPDSVKGRFTISRDNAKNNLYLQMSSLKSEDTAMYYCVRDKSMGFGAWFAYWGQGTLVTVSA
VL: EIVLTQSPTTMAASPGEKITITCSASSSISSNYLHWYQQRPGFSPKLLIYRTSNLASGVPARFSGSGSGTSYSLTIGTMEAEDVATYYCQQGHSIPYTFGGGTKLEIK
notes: also called 新型冠状病毒核衣壳抗体(mAb#9); 第二新型冠状病毒核衣壳蛋白抗体
As for B1, the binding result is recorded as “binds”.
